Test results taken from patent publication US20030170203A1 (Human Genome Sciences, published 2003).

T1: Fc-fusion form of the extracellular domain of DR6 (UniProt O75509 42-349, limits assumed)
T1 construct: extracellular domain; not shown: Fc
T1 sequence (looked up): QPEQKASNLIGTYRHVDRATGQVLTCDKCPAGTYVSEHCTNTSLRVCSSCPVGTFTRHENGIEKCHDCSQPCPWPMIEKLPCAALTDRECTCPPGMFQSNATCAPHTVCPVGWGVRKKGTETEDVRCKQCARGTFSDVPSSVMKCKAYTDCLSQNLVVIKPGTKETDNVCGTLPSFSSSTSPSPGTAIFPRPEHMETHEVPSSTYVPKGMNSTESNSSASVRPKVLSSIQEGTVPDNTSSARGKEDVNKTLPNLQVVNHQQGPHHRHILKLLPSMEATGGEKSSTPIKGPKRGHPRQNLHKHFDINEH

T2: non-tagged form of TR6 (UniProt O95407 30-300)
T2 construct: also called TNFR-6 alpha; DcR3
T2 sequence (looked up): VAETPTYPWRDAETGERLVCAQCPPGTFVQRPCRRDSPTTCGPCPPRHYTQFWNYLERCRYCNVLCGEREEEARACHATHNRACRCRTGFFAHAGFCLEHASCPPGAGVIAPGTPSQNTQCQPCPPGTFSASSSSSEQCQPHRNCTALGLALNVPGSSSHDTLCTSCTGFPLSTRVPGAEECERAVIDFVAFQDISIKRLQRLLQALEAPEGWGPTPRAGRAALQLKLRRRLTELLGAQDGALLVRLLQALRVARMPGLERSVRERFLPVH

T3: recombinant, untagged TNF-gamma-beta protein (aa 72-251) from E. coli (human, UniProt O95150 72-251)
T3 construct: Purified from E. coli
T3 sequence (looked up): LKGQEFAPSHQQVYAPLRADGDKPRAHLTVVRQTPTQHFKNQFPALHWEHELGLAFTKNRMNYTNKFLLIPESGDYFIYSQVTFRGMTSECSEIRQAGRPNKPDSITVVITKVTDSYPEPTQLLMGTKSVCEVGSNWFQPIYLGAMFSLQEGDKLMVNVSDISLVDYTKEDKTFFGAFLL

T4: FADD (UniProt Q13158 1-208)
T4 construct: 35S-labeled by in vitro transcription-translation for the GST pull-down; also called AU1-FADD; FADD/MORT1
T4 sequence (looked up): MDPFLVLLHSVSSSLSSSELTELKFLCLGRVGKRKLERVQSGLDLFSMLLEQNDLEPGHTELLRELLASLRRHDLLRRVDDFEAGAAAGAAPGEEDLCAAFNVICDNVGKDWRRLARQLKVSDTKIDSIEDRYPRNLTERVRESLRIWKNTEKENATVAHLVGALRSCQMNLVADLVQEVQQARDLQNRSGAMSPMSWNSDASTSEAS

T5: RIP (UniProt Q13546 1-671, limits assumed)
T5 construct: 35S-labeled by in vitro translation for the GST pull-down; also called myc-RIP
T5 sequence (looked up): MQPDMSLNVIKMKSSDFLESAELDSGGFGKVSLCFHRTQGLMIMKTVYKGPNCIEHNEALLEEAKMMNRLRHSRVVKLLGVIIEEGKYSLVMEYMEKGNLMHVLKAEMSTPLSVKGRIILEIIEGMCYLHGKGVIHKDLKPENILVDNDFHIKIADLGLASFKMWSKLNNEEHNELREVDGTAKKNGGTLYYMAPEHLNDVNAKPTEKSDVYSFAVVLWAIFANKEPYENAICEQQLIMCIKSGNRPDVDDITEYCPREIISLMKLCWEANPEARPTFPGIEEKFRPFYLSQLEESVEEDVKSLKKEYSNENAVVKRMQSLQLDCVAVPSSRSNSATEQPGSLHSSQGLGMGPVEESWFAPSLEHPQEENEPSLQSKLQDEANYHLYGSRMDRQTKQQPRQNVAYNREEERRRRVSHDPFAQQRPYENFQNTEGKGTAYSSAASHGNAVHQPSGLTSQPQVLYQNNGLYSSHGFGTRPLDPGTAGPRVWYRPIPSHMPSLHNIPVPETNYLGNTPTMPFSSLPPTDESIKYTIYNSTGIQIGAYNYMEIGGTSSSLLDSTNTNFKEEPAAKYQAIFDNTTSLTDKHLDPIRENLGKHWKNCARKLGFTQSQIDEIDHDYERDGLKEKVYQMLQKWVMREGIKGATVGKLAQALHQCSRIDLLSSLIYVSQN

B1: Fc-fusion form of the extracellular domain of TNFR1 (Fc fusion, UniProt P19438 30-211, looked up)
chain: LVPHLGDREKRDSVCPQGKYIHPQNNSICCTKCHKGTYLYNDCPGPGQDTDCRECESGSFTASENHLRHCLSCSKCRKEMGQVEISSCTVDRDTVCGCRKNQYRHYWSENLFQCFNCSLCLNGTVHLSCQEKQNTVCTCHAGFFLRENECVSCSNCKKSLECTKLCLPQIENVKGTEDSGTT
notes: extracellular domain; also called TNFR1-Fc; TNFRI.Fc; not shown: Fc
B2: full length TNF-gamma-beta expressed on the cell surface (ligand, human, UniProt O95150 1-251, looked up)
chain: MAEDLGLSFGETASVEMLPEHGSCRPKARSSSARWALTCCLVLLPFLAGLTTYLLVSQLRAQGEACVQFQALKGQEFAPSHQQVYAPLRADGDKPRAHLTVVRQTPTQHFKNQFPALHWEHELGLAFTKNRMNYTNKFLLIPESGDYFIYSQVTFRGMTSECSEIRQAGRPNKPDSITVVITKVTDSYPEPTQLLMGTKSVCEVGSNWFQPIYLGAMFSLQEGDKLMVNVSDISLVDYTKEDKTFFGAFLL
notes: whole, on cells; also called TNF-gamma-beta expressing cells
B3: Fc-fusion form of the extracellular domain of AITR (Fc fusion, UniProt Q9Y5U5 26-162, looked up)
chain: QRPTGGPGCGPGRLLLGTGTDARCCRVHTTRCCRDYPGEECCSEWDCMCVQPEFHCGDPCCTTCRHHPCPPGQGVQSQGKFSFGFQCIDCASGTFSGGHEGHCKPWTDCTQFGFLTVFPGNKTHNAVCVPGSPPAEP
notes: extracellular domain; not shown: Fc
B4: extracellular domain of human DR3 (aa 1-199) fused at its C-terminus to the Fc domain of human IgG1 (Fc fusion, not shown: a dimerising Fc or GST)
chain: QGGTRSPRCDCAGDFHKKIGLFCCRGCPAGHYLKAPCTEPCGNSTCLVCPQDTFLAWENHHNSECARCQACDEQASQVALENCSAVADTRCGCKPGWFVECQVSQCVSSSPFYCQPCLDCGALHRHTRLLCSRRDTDCGTCLPGFYEHGDGCVSCPTSTLGSCPERCAAVCGWRQ
notes: also called DR3-Fc; DR3.Fc
B5: GST fusion of the cytoplasmic domain of DR3 (amino acid residues 215-393 (SEQ ID NO:4)) (other)
chain: AGMEALTPPPATHLSPLDSAHTLLAPPDSSEKICTVQLVGNSWTPGYPETQEALCPQVTWSWDQLPSRALGPAAAPTLSPESPAGSPAMMLQPGPQLYDVMDAVPARRWKEFVRTLGLREAEIEAVEVEIGRFRDQQYEMLKRWRQQQPAGLGAVYAALERMGLDGCVEDLRSRLQRGP
notes: Made in E. coli BL21 (DE3) pLysS and immobilized on glutathione-agarose beads; The results paragraph calls it GST-DDCR (DDCR is the former name of DR3); also called GST-DR3; GST-DDCR; not shown: glutathione S-transferase from vector pGSTag
B6: Fc-fusion form of the extracellular domain of OX40 (Fc fusion, UniProt P43489 29-214, looked up)
chain: LHCVGDTYPSNDRCCHECRPGNGMVSRCSRSQNTVCRPCGPGFYNDVVSSKPCKPCTWCNLRSGSERKQLCTATQDTVCRCRAGTQPLDSYKPGVDCAPCPPGHFSPGDNQACKPWTNCTLAGKHTLQPASNSSDAICEDRDPPATQPQETQGPPARPITVQPTEAWPRTSQGPSTRPVEVPGGRA
notes: as for B3
B7: Fc-fusion form of the extracellular domain of DcR1 (Fc fusion, UniProt O14798 26-221, looked up)
chain: ATTARQEEVPQQTVAPQQQRHSFKGEECPAGSHRSEHTGACNPCTEGVDYTNASNNEPSCFPCTVCKSDQKHKSSCTMTRDTVCQCKEGTFRNENSPEMCRKCSRCPSGEVQVSNCTSWDDIQCVEEFGANATVETPAAEETMNTSPGTPAPAAEETMNTSPGTPAPAAEETMTTSPGTPAPAAEETMTTSPGTPA
notes: as for B3
B8: Fc-fusion form of the extracellular domain of RANK (Fc fusion, UniProt Q9Y6Q6 30-212, looked up)
chain: IAPPCTSEKHYEHLGRCCNKCEPGKYMSSKCTTTSDSVCLPCGPDEYLDSWNEEDKCLLHKVCDTGKALVAVVAGNSTTPRRCACTAGYHWSQDCECCRRNTECAPGLGAQHPLQLNKDTVCKPCLAGYFSDAFSSTDKCRPWTNCTFLGKRVEHHGTEKSDAVCSSSLPARKPPNEPHVYLP
notes: as for B3
B9: Fc-fusion form of the extracellular domain of OPG (Fc fusion, UniProt O00300 22-194, looked up)
chain: ETFPPKYLHYDEETSHQLLCDKCPPGTYLKQHCTAKWKTVCAPCPDHYYTDSWHTSDECLYCSPVCKELQYVKQECNRTHNRVCECKEGRYLEIEFCLKHRSCPPGFGVVQAGTPERNTVCKRCPDGFFSNETSSKAPCRKHTNCSVFGLLLTQKGNATHDNICSGNSESTQK
notes: as for B3
B10: Fc-fusion form of the extracellular domain of DcR2 (Fc fusion, UniProt Q9UBN6 56-211, looked up)
chain: ATIPRQDEVPQQTVAPQQQRRSLKEEECPAGSHRSEYTGACNPCTEGVDYTIASNNLPSCLLCTVCKSGQTNKSSCTTTRDTVCQCEKGSFQDKNSPEMCRTCRTGCPRGMVKVSNCTPRSDIKCKNESAASSTGKTPAAEETVTTILGMLASPYH
notes: as for B3

Tests used:
[1] = target: B2; assay: flow cytometry on HEK293F stable transfectants expressing full length TNF-gamma-beta
Experimental: (§1) TR6 has been previously described as a decoy receptor (Pitti et al., Nature 396:699-703 (1998); Yu et al., J. Biol Chem. 274:13733-6 (1999)) capable of competing with Fas and HveA for binding of FasL and LIGHT, respectively.
(§2) One million cells, in 0.1 ml of FACS buffer (PBS, 0.1% BSA, 0.1% NaN₃), were incubated with 0.1-1 microgram of protein or antibody at RT for 15 min. The cells were washed with 3 ml of FACS buffer, reacted with biotinylated primary antibody, and stained with PE-conjugated secondary antibody at RT for 15 min. Cells were then washed again, resuspended in 0.5 microgram/ml of propidium iodide, and live cells were gated and analyzed on a FACScan using the CellQuest software (BD Biosciences).

[2] = target: T1, Fc-fusion form of the extracellular …; assay: as above
Experimental: as §1, §2

non-tagged form of TR6 = target: T2, non-tagged form of TR6; assay: flow cytometry, competition with DR3-Fc for TNF-gamma-beta on HEK293F cells
Experimental: as §1, §2

[3] = target: T3, recombinant, untagged TNF-gamma-beta …; assay: BIAcore 3000 (SPR), DR3-Fc amine-coupled to CM5 chip, TNF-gamma-beta 3-370 nM in flow, 1:1 binding model; DR3-Fc on the chip
Experimental: (§3) TNFR-Fc were covalently immobilized to the BIAcore sensor chip (CM5 chip) via amine groups using N-ethyl-N′-(dimethylaminopropyl) carbodiimide/N-hydroxysuccinimide chemistry. […] The amount of bound protein was determined during washing of the flow cell with HBS buffer (10 mM HEPES, pH 7.4, 150 mM NaCl, 3.4 mM EDTA, 0.005% Surfactant P20). The flow cell surface was regenerated by displacing bound protein by washing with 20 microliters of 10 mM glycine-HCl, pH 2.3. For kinetic analysis, the on and off rates were determined using the kinetic evaluation program in BIAevaluation 3 software using a 1:1 binding model and the global analysis method.

[4] = target: T3, recombinant, untagged TNF-gamma-beta …; assay: BIAcore 3000 (SPR), DR3-Fc amine-coupled to CM5 chip, three batches of TNF-gamma-beta, 1:1 binding model; DR3-Fc; average of three batches of TNF-gamma-beta
Experimental: as §3

FADD = target: T4, FADD; assay: GST pull-down of in vitro translated 35S-labeled protein, SDS-PAGE and autoradiography
Experimental: (§4) In vitro binding experiments were performed as described previously (A. M. Chinnaiyan et al., Cell 81: 505-12 (1995); M. P. Boldin et al., J Biol Chem 270: 7795-8 (1995); F. C. Kischkel etal., EMBO 14: 5579-5588 (1995)). […] Following translation, equal amounts of total ³⁵S-labeled reticulocyte lysate were diluted into 150 μl GST binding buffer (50 mM Tris, pH 7.6,120 mM NaCl, 1% NP-40) and incubated for 2 hrs. at 4° C. with the various GST fusion proteins complexed to beads, following the beads were pelleted by plus centrifugation, washed three times in GST buffer, boiled in SDS-sample buffer and resolved on a 12.5% SDS-PAGE. Bound proteins were visualized following autoradioraphy at −80° C. […] After the beads were washed, retained proteins were analyzed by SDS-PAGE and autoradiography. The gel was Coomassie stained to monitor equivalency of loading.
(§5) As an initial screen, in vitro translated radiolabeled DAMs were precipitated with various glutathione S-transferase (GST) fusion proteins immobilized on glutathione-Sepharose beads.

RIP = target: T5, RIP; assay: as above
Experimental: as §4, §5

| Binder | binding result [1] | also measured |
| --- | --- | --- |
| B1 | no binding |  |
| B2 |  | binding result [2]: no binding; binding result (non-tagged form of TR6): binds |
| B3 | no binding |  |
| B4 |  | koff [3]: 0.00413 s⁻¹; kon [3]: 639000 M⁻¹ s⁻¹; Kd [4]: 6.45 nM |
| B5 |  | binding result (FADD): no binding; binding result (RIP): no binding |
| B6 | no binding |  |
| B7 | no binding |  |
| B8 | no binding |  |
| B9 | no binding |  |
| B10 | no binding |  |
